Here are results for two molecules from PMC7840522, “Ca14-3-3 Interacts With CaWRKY58 to Positively Modulate Pepper Response to Low-Phosphorus Starvation”.

Series [1] has as its target Ca14-3-3-GFP (pepper (Capsicum annuum)). Description: MST; 20 nM Ca14-3-3-GFP as target, CaWRKY58-6 × His as ligand serially diluted (1.0E^-10 to 1.0E^-3 mM), 10 min in interaction buffer, Monolith NT.115, 50% IR laser power, ambient temperature.
A further series has as its target T1, CaWRKY58-6xHis (Capsicum annuum, UniProt Q5DJV3 1-378).
T1 sequence: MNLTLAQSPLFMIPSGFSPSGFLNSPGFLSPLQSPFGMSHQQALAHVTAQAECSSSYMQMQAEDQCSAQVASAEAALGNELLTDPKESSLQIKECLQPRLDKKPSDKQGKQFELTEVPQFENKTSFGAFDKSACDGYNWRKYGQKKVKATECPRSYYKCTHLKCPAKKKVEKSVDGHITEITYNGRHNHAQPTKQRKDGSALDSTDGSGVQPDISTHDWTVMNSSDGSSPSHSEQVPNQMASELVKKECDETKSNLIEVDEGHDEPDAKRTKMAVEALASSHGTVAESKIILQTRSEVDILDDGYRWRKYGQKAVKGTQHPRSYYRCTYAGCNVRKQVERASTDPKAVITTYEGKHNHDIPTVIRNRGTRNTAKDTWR
Nature of the series: EMSA; not stated in the material (EMSA as in cited works; Cy5 probes, Odyssey CLX). The following applies: protein: recombinant; tags: 6xHis (pDEST17; text says N-terminal 6xHis); label: Cy5. In general terms: Mobility shift assays separate free from complexed probe on a gel.

A word on the Kd: it is the free concentration of one partner at which half of the binding sites on the other are occupied at equilibrium, for simple one-to-one binding. Low readings indicate a tighter complex, high ones a looser complex. Molecule CaWRKY58-6 × His (GFP fusion protein) yielded a Kd in series [1] of 210 nM.

B1: mCaPHR1-P (mCaPHR1-Pcy5) (dsDNA)
DNA 1: AAACTATGCTCCTACATCTAAATTT
DNA 2: AAATTTAGATGTAGGAGCATAGTTT
As for B1, the binding result with CaWRKY58-6xHis is “no binding”.
